PMC10411777, “Analytical sameness methodology for the evaluation of structural, physicochemical, and biological characteristics of Armlupeg: A pegfilgrastim biosimilar case study” (PLOS ONE, 2023)

Molecular target: G-CSF receptor (UniProt Q99062 25-836)
Experiment: SPR; BIAcore T200; G-CSF receptor immobilised on a CM5 chip at 2000 RU by amine coupling; pegfilgrastim injected at seven concentrations from 0.08 to 5 nM; 1:1 binding model; KD from kinetics; triplicates for each batch
Conditions: both partners purified

Chain of G-CSF receptor (Q99062 25-836): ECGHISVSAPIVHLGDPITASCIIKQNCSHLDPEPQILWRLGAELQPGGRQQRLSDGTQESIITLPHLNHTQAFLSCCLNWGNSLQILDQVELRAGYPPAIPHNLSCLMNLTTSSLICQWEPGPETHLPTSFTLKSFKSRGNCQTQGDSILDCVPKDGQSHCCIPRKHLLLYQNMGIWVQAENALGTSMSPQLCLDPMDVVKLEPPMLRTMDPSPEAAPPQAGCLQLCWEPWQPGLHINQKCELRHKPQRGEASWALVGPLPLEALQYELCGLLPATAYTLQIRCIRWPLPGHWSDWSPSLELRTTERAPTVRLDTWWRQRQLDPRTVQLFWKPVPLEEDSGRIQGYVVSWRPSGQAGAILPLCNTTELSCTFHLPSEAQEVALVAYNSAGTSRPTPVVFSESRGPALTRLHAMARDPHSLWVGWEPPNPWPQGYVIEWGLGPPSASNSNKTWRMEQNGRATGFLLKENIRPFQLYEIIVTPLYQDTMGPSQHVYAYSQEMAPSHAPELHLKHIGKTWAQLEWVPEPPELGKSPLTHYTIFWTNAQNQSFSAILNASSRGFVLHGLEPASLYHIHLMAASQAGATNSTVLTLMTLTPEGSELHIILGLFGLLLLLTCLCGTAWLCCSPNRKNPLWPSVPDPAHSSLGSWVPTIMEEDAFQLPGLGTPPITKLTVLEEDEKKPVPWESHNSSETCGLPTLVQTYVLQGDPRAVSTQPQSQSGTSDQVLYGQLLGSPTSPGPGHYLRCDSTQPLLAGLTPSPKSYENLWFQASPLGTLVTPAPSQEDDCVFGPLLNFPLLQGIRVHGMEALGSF

B1: Armlupeg (Lupin’s Pegfilgrastim) (ligand, human)
chain: MTPLGPASSLPQSFLLKCLEQVRKIQGDGAALQEKLCATYKLCHPEELVLLGHSLGIPWAPLSSCPSQALQLAGCLSQLHSGLFLYQGLLQALEGISPELGPTLDTLQLDVADFATTIWQQMEELGMAPALQPTQGAMPAFASAFQRRAGGVLVASHLQSFLEVSYRVLRHLAQP
modifications: 20 kDa monomethoxy polyethylene glycol (PEG) covalently bound to the N-terminal methionine residue
notes: N-terminal methionine residue of filgrastim, named in words; it carries the PEG; Filgrastim: recombinant human granulocyte colony-stimulating factor (G-CSF), 175 amino acids with the N-terminal methionine; 18 lots were used for SPR; also called proposed biosimilar; source: Armlupeg drug product lots (Lupin Limited)
- Kd: 0.0512 to 0.118 nM
